According to patent US20110231942A1:

Target: Wnt3a
Assay: cell-based or functional assay

Human Tiki2 (from UniProt A6NFA1 20-486) (enzyme)
decrease in Wnt3a acylation (metabolic labeling with az-15 and 35S-Met/Cys, click chemistry with ALK-Rho on immunoprecipitated Wnt3a): 31%
